Measured values from US10874712B2, “Methods, compounds and compositions for modulating blood brain barrier integrity and re-myelination” (University Health Network, priority 2015, dated 2020).

Key:
[1] = tested on: MOG(35-55)-pulsed splenocytes of EAE-induced mice; assay: MOG-specific cytokine expression, secretion and proliferation of splenocytes; assay type: in vivo, mouse
Description: Mice were sacrificed on day 10 post-induction and single cells suspension of splenocytes were harvested as described above. Cells (1×10^6) were cultured in 10% FBS RPMI-1640 in the presence of 0 μg/mL, 30 μg/mL, or 100 μg/mL of MOG peptide for 15 h. Cells were then treated with GolgiStop (BD Biosciences) and incubated an additional 3 h and were subsequently stained.
Plates were centrifuged at 1800 rpm for 5 min and the media was then harvested and stored at −80 C until analysis. Cytokine secretion of IL-17a, IL-6, TNF-α, and IFN-γ were assessed using the BD cytometric Bead Array (CBA) (BD Biosciences) according to the manufacturer's guidelines. Splenocyte proliferation was determined using CellTrace™ CFSE Cell Proliferation Kit for flow cytometry (Life Technologies) according to manufacturer's instructions. Briefly, 1×10^6 cells were suspended in warm PBS/0.1% BSA and stained with CFSE solution at a final concentration of 5 μM and incubated at 37° C. for 10 min. The staining was quenched using 5 volumes of ice-cold culture media, incubated for 5 min on ice, centrifuged at 700 rcf for 5 min, washed twice using culture medium, and re-suspended in 10% FBS complete RPMI-1640. Cells were then cultured in 0 μg/mL or 30 μg/mL of MOG(35-55) peptide for 72 h at 37° C., 5% CO2. […] Proliferation was analyzed by flow cytometry following staining in the presence of PI.

[2] = sRGMc level in sera of treated mice by ELISA; assay type: in vivo, mouse
Description: Blood collected from the saphenous veins of mice induced with EAE at 0, 5, 10, 18 and 30 days in Microvette® CB300 capillary tubes (Starstedt) was spun down at 2000 rcf for 10 min and stored at −80° C. sRGMa and sRGMc in the sera were detected using ELISA kits for sRGMa (MRGMAO, R&D) and sRGMc (MRGMCO, R&D) according to manufacturer's instructions.
To ensure that over-expression of sRGMc was efficient, sera from 3 RGMc-treated mice were collected and compared to 3 vehicle-treated mice at 24 h post-treatment by ELISA. […] The mice were then observed and scored twice daily at 12 h intervals for 18 days. […] Whether intra-peritoneal (i.p) injections of RGMc could overcome the transient effects observed with intravenous administration of this protein was explored. […] Next the levels of RGMc in the sera of sham-treated animals and mice induced with EAE at day 10 as well as in EAE animals (day 10) that were injected with RGMc were analyzed. […] Thus, EAE reduced RGMc levels and over-expression of sRGMc in EAE-induced mice is beneficial in reducing the incidence and the severity as well as delaying the onset of disease.

EAE-induced mice [3] = assay: Experimental Autoimmune Encephalomyelitis (EAE) mouse model, body condition score; assay type: in vivo; set-up: clinical severity (body condition score): dose or concentration left out as unconfirmed
[4] = tested on: mouse cerebellar organotypic cultures; assay: Remyelination in lysolecithin-demyelinated cerebellar organotypic cultures (MBP staining); assay type: cell-based; details: sRGMc 500 ng/ml for 14 days after lysolecithin
Description: To assess the ability of sRGMc to function as a remyelinating agent, its function in in vitro cerebellar explant cultures was investigated. Briefly, cultures were demyelinated using lysolecithin, a detergent, and then cultured in the presence of sRGMc for 14 days.
Myelination-demyelination-remyelination studies were performed in mouse cerebellar organotypic cultures. The cerebella of postnatal 6 day old pups were dissected and sectioned at 400 μm thickness using vibratome. Cerebellar sections were then plated on insert plates (Corning, Wilkes Barre, Pa.) and allowed to attach. Media was replaced every 2-3 days and cultures were maintained for 7 days. To induce demyelination, 0.5 mg/ml lysolecithin (1′-monoacyl-1-3-glycerylphosphorylcholine; Sigma) was added to the culture medium for 18 hr, after which it was removed and replaced with fresh medium containing sRGMc (500 ng/ml) or control protein and the cultures maintained for 14 more days. Media was replaced every 2-3 days. Demyelination-remyelination was assessed by staining explants with myelin basic protein antibody MBP (Cell Signaling).

EAE-induced mice [5] = assay: Histological staining (H&E, Luxol Fast Blue) of cervical spinal cord, inflammatory index; assay type: in vivo, mouse; details: EAE day 18; vs vehicle
Description: At day 18 post-EAE induction, mice were trans-cardially perfused with 20 mL PBS followed by 20 mL 4% paraformaldehyde in PBS (PFA) (Electron Microscopy Sciences) and 30 μm spinal cord cryosections were stained. The slides were washed in PBS for 3 min, followed by a 30 s wash in 50% ethanol (EtOH) and incubated overnight in Luxol Fast Blue (LFB) at 60° C. The sections were washed in 95% EtOH for 5 min, distilled water for 5 min prior to de-staining with […] for 10 min, and were then washed in 70% EtOH for 30 s, 5 min in MilliQ H2O, and sections were immersed in Harris Hematoxylin (Sigma-Aldrich) for 20 min and were rinsed in warm water to remove excess stain. Samples were dehydrated in 95% EtOH, immersed in alcoholic eosin Y (Sigma-Aldrich) for 15 s, dehydrated twice in 95% EtOH for 5 min, 100% EtOH for 5 min and xylene for 5 min. Slides were mounted with Permount (Fisher Scientific) and air-dried overnight at room temperature. Luxol Fast Blue (LFB) staining was quantified using relative staining intensity using Image J software. All intensities were normalized to a sham mouse spinal cord.
Cellular infiltration was quantified using an inflammatory index: 0, no inflammation; 1, cellular infiltration only in the perivascular areas and meninges; 2, mild cellular infiltration in the parenchyma (<10 cells); 3, moderate cellular infiltration in the parenchyma (10-49 cells); 4, moderate cellular infiltration in the parenchyma (50-99 cells); and 5, severe cellular infiltration in parenchyma (>100 cells).

[6] = intra-peritoneal injections, vs vehicle

B1: sRGMc: truncated form of RGMc with the GPI anchor sequence removed, released as a soluble protein (SEQ ID NOs: 1 and 3) (protein, listed as Homo sapiens)
chain: CKILRCNAEYVSSTLSLRGGGSSGALRGGGGGGRGGGVGSGGLCRALRSYALCTRRTARTCRGDLAFHSAVHGIEDLMIQHNCSRQGPTAPPPPRGPALPGAGSGLPAPDPCDYEGRFSRLHGRPPGFLHCASFGDPHVRSFHHHFHTCRVQGAWPLLDNDFLFVQATSSPMALGANATATRKLTIIFKNMQECIDQKVYQAEVDNLPVAFEDGSINGGDRPGGSSLSIQTANPGNHVEIQAAYIGTTIIIRQTAGQLSFSIKVAEDVAMAFSAEQDLQLCVGGCPPSQRLSRSERNRRGAITIDTARRLCKEGLPVEDAYFHSCVFDVLISGDPNFTVAAQAALEDARAFLPDLEKLH
cytokine secretion (IL17, IFN-γ, TNFα, IL6) of MOG-pulsed splenocytes ([1]; pulsed with MOG for 96 h, ELISA, vs vehicle): does not alter
cytokine profile of splenocytes re-stimulated with MOG(35-55) ([1]; re-stimulated for 18 hrs, vs control mice): no apparent effect
increase in sRGMc levels in sera compared to vehicle-treated animals ([2]; 24 h post-treatment, ELISA, 3 mice per group): 3 fold
RGMc levels in sera of EAE mice after RGMc injection ([2]; EAE day 10, compared to sham-treated animals): restored
stability of sRGMc treatment in serum ([2]; ELISA, FIG. 4F): stable for 24 h post treatment
disease severity (EAE-induced mice [3]; [6]): significantly abrogated disease severity
incidence of EAE onset (EAE-induced mice [3]; [6]): decreased the incidence of EAE onset
onset of disease (EAE-induced mice [3]; [6]): delayed the onset of disease
day by which treated animals developed clinical symptoms (EAE-induced mice [3]; intravenous sRGMc at days 3, 6 and 9): ≤ 14 day post-induction
clinical severity of the disease (body condition score) (EAE-induced mice [3]; intravenous sRGMc at days 3, 6 and 9 post-induction, vs vehicle, scored 18 days): significant decrease in clinical severity
clinical severity (body condition score) (EAE-induced mice [3]; sRGMc every three days, vs PBS, FIG. 6B): markedly reduced
remyelination (myelin basic protein staining) [4]: promote remyelination
extent of cellular infiltrates in cervical spinal cord (EAE-induced mice [5]): significantly reduced
extent of de-myelination (Luxol Fast Blue) (EAE-induced mice [5]): significantly reduced
inflammatory index score (EAE-induced mice [5]): significantly lower
